Laboratory results: paper doi:10.1101/2021.08.20.457142

B1: MKK6 D-site peptide / p38-alpha (MAPK14) L195A, full length (parent complex)
chain 1: SQSKGKKRNPGLKIPKEAFEQP
chain 2: MSQERPTFYRQELNKTVWEVPERYQNLSPVGSGAYGSVCAAFDTKTGHRVAVKKLSRPFQSIIHAKRTYRELRLLKHMKHENVIGLLDVFTPARSLEEFNDVYLVTHLMGADLNNIVKCQKLTDDHVQFLIYQILRGLKYIHSADIIHRDLKPSNLAVNEDCELKILDFGLARHTDDEMTGYVATRWYRAPEIMANWMHYNQTVDIWSVGCIMAELLTGRTLFPGTDHIDQLKLILRLVGTPGAELLKKISSESARNYIQSLAQMPKMNFANVFIGANPLAVDLLEKMLVLDSDKRITAAQALAHAYFAQYHDPDDEPVAEPYDQSFESRDFLIDEWKSLTYDEVISFVPPPLDQEEMES

Variants of: B1

First: chain 1 L12A, chain 1 I14A
Second: chain 1 G11D
The screen value of the first is lower: -1.27 Z-score of the enrichment rate within one screen of 711 sequences for the first, 0.0949 Z-score of the enrichment rate within one screen of 711 sequences for the second.

Compared with chain 1 G11Y, chain 1 G11S is lower in screen value: 1.26 Z-score of the enrichment rate within one screen of 711 sequences for the first, 0.683 Z-score of the enrichment rate within one screen of 711 sequences for the second.

First: chain 1 G11K
Second: chain 1 G11V
The screen value of the first is higher: 2.23 Z-score of the enrichment rate within one screen of 711 sequences for the first, 0.807 Z-score of the enrichment rate within one screen of 711 sequences for the second.

Compared with chain 1 G11F, chain 1 K4Y is lower in screen value: 1.14 Z-score of the enrichment rate within one screen of 711 sequences for the first, 0.747 Z-score of the enrichment rate within one screen of 711 sequences for the second.

Going from chain 1 K4F to chain 1 K4G, the screen value falls from 1.08 Z-score of the enrichment rate within one screen of 711 sequences to 0.543 Z-score of the enrichment rate within one screen of 711 sequences.

Compared with chain 1 K4N, chain 1 K4I is higher in screen value: 0.364 Z-score of the enrichment rate within one screen of 711 sequences for the first, 0.786 Z-score of the enrichment rate within one screen of 711 sequences for the second.

Compared with chain 1 K4Q, chain 1 K4P is lower in screen value: 1.02 Z-score of the enrichment rate within one screen of 711 sequences for the first, -0.0666 Z-score of the enrichment rate within one screen of 711 sequences for the second.

Going from chain 1 K4W to chain 1 K4M, the screen value falls from 1.28 Z-score of the enrichment rate within one screen of 711 sequences to 0.845 Z-score of the enrichment rate within one screen of 711 sequences.

First: chain 1 K4T
Second: chain 1 K4C
The screen value of the first is higher: 0.747 Z-score of the enrichment rate within one screen of 711 sequences for the first, 0.526 Z-score of the enrichment rate within one screen of 711 sequences for the second.

Going from chain 1 K4E to chain 1 K4D, the screen value falls from 0.242 Z-score of the enrichment rate within one screen of 711 sequences to -0.172 Z-score of the enrichment rate within one screen of 711 sequences.

First: chain 1 K13V
Second: chain 1 K13N
The screen value of the first is higher: 0.144 Z-score of the enrichment rate within one screen of 711 sequences for the first, -0.0907 Z-score of the enrichment rate within one screen of 711 sequences for the second.

Going from chain 1 K13W to chain 1 K13T, the screen value falls from 0.592 Z-score of the enrichment rate within one screen of 711 sequences to 0.352 Z-score of the enrichment rate within one screen of 711 sequences.

Compared with chain 1 K13F, chain 1 K13D is lower in screen value: 0.119 Z-score of the enrichment rate within one screen of 711 sequences for the first, -0.943 Z-score of the enrichment rate within one screen of 711 sequences for the second.

Going from chain 1 K13H to chain 1 K13A, the screen value falls from -0.111 Z-score of the enrichment rate within one screen of 711 sequences to -0.412 Z-score of the enrichment rate within one screen of 711 sequences.

Compared with chain 1 K13L, chain 1 K13S is higher in screen value: -0.274 Z-score of the enrichment rate within one screen of 711 sequences for the first, -0.0532 Z-score of the enrichment rate within one screen of 711 sequences for the second.

First: chain 1 K13I
Second: chain 1 K13R
The screen value of the first is lower: 0.477 Z-score of the enrichment rate within one screen of 711 sequences for the first, 1.63 Z-score of the enrichment rate within one screen of 711 sequences for the second.

First: chain 1 K13G
Second: chain 1 K13P
The screen value of the first is lower: -1.05 Z-score of the enrichment rate within one screen of 711 sequences for the first, -0.836 Z-score of the enrichment rate within one screen of 711 sequences for the second.

Compared with chain 1 K6A, chain 1 R8A, chain 1 R8L is higher in screen value: -0.524 Z-score of the enrichment rate within one screen of 711 sequences for the first, 0.23 Z-score of the enrichment rate within one screen of 711 sequences for the second.

First: chain 1 R8S
Second: chain 1 R8E
The screen value of the first is higher: 0.135 Z-score of the enrichment rate within one screen of 711 sequences for the first, -0.5 Z-score of the enrichment rate within one screen of 711 sequences for the second.

Compared with chain 1 R8N, chain 1 R8Y is higher in screen value: 0.126 Z-score of the enrichment rate within one screen of 711 sequences for the first, 0.157 Z-score of the enrichment rate within one screen of 711 sequences for the second.

Going from chain 1 R8I to chain 1 S3A, chain 1 K4A, the screen value rises from 0.378 Z-score of the enrichment rate within one screen of 711 sequences to 0.582 Z-score of the enrichment rate within one screen of 711 sequences.

Compared with chain 1 I14A, chain 1 P15A, chain 1 K6A, chain 1 K13A is higher in screen value: -1.12 Z-score of the enrichment rate within one screen of 711 sequences for the first, -0.984 Z-score of the enrichment rate within one screen of 711 sequences for the second.

Going from chain 1 N9S to chain 1 N9E, the screen value falls from 0.752 Z-score of the enrichment rate within one screen of 711 sequences to -0.389 Z-score of the enrichment rate within one screen of 711 sequences.

First: chain 1 N9K
Second: chain 1 N9C
The screen value of the first is higher: 1.98 Z-score of the enrichment rate within one screen of 711 sequences for the first, 1.38 Z-score of the enrichment rate within one screen of 711 sequences for the second.

Going from chain 1 N9T to chain 1 N9P, the screen value rises from 0.467 Z-score of the enrichment rate within one screen of 711 sequences to 1.77 Z-score of the enrichment rate within one screen of 711 sequences.

Compared with chain 1 N9A, chain 1 S3A, chain 1 L12A is lower in screen value: 1.56 Z-score of the enrichment rate within one screen of 711 sequences for the first, -1.11 Z-score of the enrichment rate within one screen of 711 sequences for the second.

Going from chain 1 N9A, chain 1 I14A to chain 1 R8A, chain 1 K16A, the screen value falls from -0.573 Z-score of the enrichment rate within one screen of 711 sequences to -0.602 Z-score of the enrichment rate within one screen of 711 sequences.

Going from chain 1 G5A, chain 1 P15A to chain 1 K7A, chain 1 P10A, the screen value falls from 2.65 Z-score of the enrichment rate within one screen of 711 sequences to -0.226 Z-score of the enrichment rate within one screen of 711 sequences.

First: chain 1 K7A, chain 1 G11A
Second: chain 1 K7A, chain 1 K16A
The screen value of the first is higher: 0.113 Z-score of the enrichment rate within one screen of 711 sequences for the first, 0.0296 Z-score of the enrichment rate within one screen of 711 sequences for the second.

Compared with chain 1 P10V, chain 1 P10D is lower in screen value: 0.742 Z-score of the enrichment rate within one screen of 711 sequences for the first, -0.469 Z-score of the enrichment rate within one screen of 711 sequences for the second.

Going from chain 1 P10F to chain 1 P10W, the screen value rises from 0.865 Z-score of the enrichment rate within one screen of 711 sequences to 0.911 Z-score of the enrichment rate within one screen of 711 sequences.

Compared with chain 1 P10T, chain 1 P10L is higher in screen value: 0.699 Z-score of the enrichment rate within one screen of 711 sequences for the first, 1.79 Z-score of the enrichment rate within one screen of 711 sequences for the second.

Going from chain 1 P10C to chain 1 P10Y, the screen value rises from 0.201 Z-score of the enrichment rate within one screen of 711 sequences to 0.723 Z-score of the enrichment rate within one screen of 711 sequences.

First: chain 1 P10S
Second: chain 1 P10M
The screen value of the first is lower: 0.158 Z-score of the enrichment rate within one screen of 711 sequences for the first, 0.502 Z-score of the enrichment rate within one screen of 711 sequences for the second.

Compared with chain 1 P10A, chain 1 K6A, chain 1 K16A is lower in screen value: 0.621 Z-score of the enrichment rate within one screen of 711 sequences for the first, 0.354 Z-score of the enrichment rate within one screen of 711 sequences for the second.

Compared with chain 1 P15E, chain 1 P15K is higher in screen value: 0.418 Z-score of the enrichment rate within one screen of 711 sequences for the first, 1.65 Z-score of the enrichment rate within one screen of 711 sequences for the second.

First: chain 1 P15Y
Second: chain 1 P15G
The screen value of the first is higher: 0.93 Z-score of the enrichment rate within one screen of 711 sequences for the first, 0.848 Z-score of the enrichment rate within one screen of 711 sequences for the second.

With chain 1 P15T the screen value was 1.24 Z-score of the enrichment rate within one screen of 711 sequences.
